In the supplement of paper PMC10126150:
± gives the standard deviation of the averaged measurements.

system: ATP; assay: switch fluorescence ratio, 500 uM ATP over buffer (Cy3 cluster intensity, sum of 5 cycles each) (fold (ratio)); higher = stronger signal-on switching upon ATP binding; sequences stand for … in TCGTCGGCAGCGTCAGATGTGTATAAGAGACAGTTTTTTTTTTTTTTTTTTTTTTTTT…TC; conditions: aptamer strand: ATP DNA aptamer (quencher-CACCTGGGGGAGTATTGCGGAGGAAGG + anchor), 100 nM annealed; ATP concentration: 500 uM
Method in brief: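 After annealing to 100 nM quencher-labelled ATP aptamer, Cy3-labelled switching-strand clusters on a modified Illumina MiSeq flow-cell were imaged in selection buffer. A second image followed after 15 min with 500 uM ATP at 22 °C, and five such buffer/ATP cycles were done, each separated by NaOH stripping and re-annealing. The fluorescence ratio, averaged per switch-domain sequence, is summed target-cycle over summed buffer-cycle Cy3 intensity per cluster, with clusters outside 100-1000 RFU excluded.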
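Also: ATP exposure 15 min at 22 °C before imaging.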

Sequence | switch fluorescence ratio
CTCGGCTGGT | 1.01 ± 0.019
CTCGGGGGAT | 1.05 ± 0.1
CTCGGGGTGT | 1.02 ± 0.018
CTCGGGTATG | 0.9791 ± 0.0043
CTCGGTTCTT | 0.975 ± 0.019
CTCGTAATCT | 1.571 ± 0.007
CTCGTAGGGA | 1.01 ± 0.027
CTCGTTGCTT | 1.03 ± 0.037
CTCGTTTTGA | 0.975 ± 0.023
CTCTACGCCG | 0.9875 ± 0.0053
CTCTATCAAT | 1.254 ± 0.0064
CTCTCAAATG | 1.03 ± 0.045
CTCTCGGCCG | 1.03 ± 0.12
CTCTCTAGCT | 1.035 ± 0.01
CTCTGAGGGG | 1.16 ± 0.1
CTCTGCTCGC | 4.15 ± 0.55
CTCTGGGCGG | 0.988 ± 0.039
CTCTGGGGGC | 1.1 ± 0.062
CTCTGTACAG | 1.01 ± 0.018
CTGAAGGCCC | 1.02 ± 0.019
CTGACAGATT | 1.11 ± 0.12
CTGACGAAGG | 1.05 ± 0.029
CTGACGGATT | 1.2 ± 0.054
CTGACGTAAG | 1.26 ± 0.29
CTGAGAACTT | 0.983 ± 0.055
CTGAGAGTAC | 1.05 ± 0.07

Sequence | switch fluorescence ratio
CTGAGAGTAT | 1 ± 0.025
CTGAGGCACG | 1.09 ± 0.068
CTGAGGGAGA | 1.04 ± 0.03
CTGAGGGGT | 1.05 ± 0.037
CTGAGGGTAT | 1.006 ± 0.0098
CTGAGTAGTT | 1.01 ± 0.018
CTGAGTATAG | 1.01 ± 0.023
CTGAGTCAAT | 2.23 ± 0.042
CTGAGTCGGA | 0.983 ± 0.033
CTGAGTGATG | 1.01 ± 0.02
CTGAGTTGGG | 0.9793 ± 0.0042
CTGATAGGGA | 1.01 ± 0.019
CTGATATGCG | 0.997 ± 0.023
CTGATGTCTA | 0.977 ± 0.022
CTGATTAGGA | 0.989 ± 0.017
CTGCAATAGA | 4.41 ± 0.16
CTGCATAGGT | 1.31 ± 0.38
CTGCATCAGT | 1.04 ± 0.011
CTGCGCAAGG | 6.27 ± 0.014
CTGCGGTAAA | 0.96953 ± 0.00082
CTGCTCTGTG | 0.968 ± 0.014
CTGCTGGGGT | 1.04 ± 0.018
CTGGAAAACG | 1.008 ± 0.0046
CTGGAAAGGG | 0.96 ± 0.019
CTGGAAGGTG | 1.811 ± 0.017
CTGGACCGGC | 0.967 ± 0.014

Sequence | switch fluorescence ratio
CTGGAGGATA | 1.12 ± 0.014
CTGGAGGGGG | 1.01 ± 0.032
CTGGATAGAA | 1.01 ± 0.033
CTGGATGGTG | 0.98 ± 0.051
CTGGCAACGA | 1.06 ± 0.013
CTGGCACGGA | 1 ± 0.063
CTGGCATGGT | 1 ± 0.011
CTGGCATTTC | 1.37 ± 0.047
CTGGCCGTTT | 1.016 ± 0.01
CTGGCTAGGT | 0.988 ± 0.057
CTGGGAACGG | 0.965 ± 0.052
CTGGGAGATG | 0.99088 ± 0.00019
CTGGGAGCAC | 1.89 ± 0.15
CTGGGATTAT | 0.9755 ± 0.0074
CTGGGCAGAG | 1.02 ± 0.043
CTGGGCGGGG | 1.01 ± 0.026
CTGGGGAGGG | 1 ± 0.048
CTGGGGATTA | 0.972 ± 0.031
CTGGGGGAAT | 1.01 ± 0.013
CTGGGGGGGC | 1.01 ± 0.043
CTGGGGTATG | 0.985 ± 0.028
CTGGGGTTGC | 0.96 ± 0.03
CTGGGGTTTG | 0.956 ± 0.019
CTGGGTGTAT | 0.984 ± 0.063
CTGGGTTGGG | 1.01 ± 0.043
CTGGGTTGGT | 0.972 ± 0.024

Sequence | switch fluorescence ratio
CTGGGTTTGT | 0.981 ± 0.016
CTGGTATAGA | 1 ± 0.046
CTGGTATTCT | 0.996 ± 0.037
CTGGTGGACG | 1.041 ± 0.0042
CTGGTGTAGT | 1.03 ± 0.047
CTGGTTAGGG | 0.98 ± 0.018
CTGGTTGGGT | 1.01 ± 0.027
CTGGTTGTCT | 1.01 ± 0.006
CTGGTTTAGC | 1 ± 0.016
CTGGTTTAGG | 1 ± 0.036
CTGGTTTAGT | 0.978 ± 0.016
CTGTAAGGTT | 1.09 ± 0.14
CTGTAAGTGG | 0.989 ± 0.017
CTGTAATAAG | 1.09 ± 0.075
CTGTAGTTTT | 1.04 ± 0.038
CTGTATTGGG | 0.977 ± 0.013
CTGTCCTTTT | 1.11 ± 0.17
CTGTCGACTG | 1.04 ± 0.017
CTGTCGTATG | 0.9749 ± 0.0082
CTGTCTATGC | 1.33 ± 0.049
CTGTCTCAAG | 0.97 ± 0.059
CTGTCTGAGT | 0.9632 ± 0.007
CTGTCTGTGC | 1.09 ± 0.044
CTGTGAAAAA | 1.09 ± 0.043
CTGTGCGACA | 1.06 ± 0.053
CTGTGCTAAT | 1.1 ± 0.037

Sequence | switch fluorescence ratio
CTGTGCTGT | 1.005 ± 0.0062
CTGTGGCGCT | 1.01 ± 0.019
CTGTGGGTTG | 1 ± 0.042
CTGTGTAGTG | 0.9954 ± 0.002
CTGTGTGCGG | 0.97 ± 0.03
CTGTGTGTTC | 1.01 ± 0.026
CTGTTAGGAT | 0.99 ± 0.028
CTGTTCGCCA | 1.07 ± 0.077
CTGTTGATGG | 1 ± 0.027
CTGTTGGGGT | 0.988 ± 0.017
CTGTTGTCGG | 0.989 ± 0.038
CTGTTTGCAG | 0.987 ± 0.056
CTGTTTTACT | 1.03 ± 0.042
CTGTTTTTTT | 0.981 ± 0.039
CTTAAAAAGG | 0.989 ± 0.0056
CTTAAAGTAT | 0.9977 ± 0.0024
CTTAAATTAT | 0.9967 ± 0.0089
CTTAACAGCG | 1.01 ± 0.02
CTTAACATGC | 1.06 ± 0.049
CTTAACCATT | 0.98 ± 0.014
CTTACCTTGA | 0.997 ± 0.031
CTTAGATTCT | 0.993 ± 0.012
CTTAGGCCAC | 0.99 ± 0.024
CTTAGGGCAC | 1.05 ± 0.016
CTTAGGGGGT | 1 ± 0.018
CTTAGGGGTA | 0.999 ± 0.043

Sequence | switch fluorescence ratio
CTTAGTAATG | 1.05 ± 0.11
CTTAGTACGG | 1.01 ± 0.054
CTTAGTGCTT | 0.973 ± 0.039
CTTAGTGGGG | 0.962 ± 0.048
CTTATAGGTC | 1.01 ± 0.017
CTTATGATGG | 0.987 ± 0.01
CTTATTAGGG | 0.986 ± 0.021
CTTATTTTTT | 1.01 ± 0.029
CTTCATAAGT | 0.983 ± 0.022
CTTCATGCTT | 1.02 ± 0.048
CTTCCGGAGG | 1.9 ± 0.048
CTTCGGACGG | 1.24 ± 0.036
CTTCGGGGCG | 1.01 ± 0.07
CTTCGGGGTT | 1.03 ± 0.035
CTTCGGTGGC | 1.01 ± 0.04
CTTCGTATCG | 1.04 ± 0.059
CTTCTACGAT | 0.998 ± 0.013
CTTCTAGAT | 0.9895 ± 0.0013
CTTCTGGTCG | 1.01 ± 0.04
CTTCTTCGGT | 1 ± 0.015
CTTCTTTCTC | 1.051 ± 0.0084
CTTGAAAACT | 1.04 ± 0.044
CTTGAACGAA | 1.02 ± 0.04
